According to US20250295803A1, “5T4 ANTIBODY-DRUG CONJUGATES AND USES THEREOF” (EXELIXIS, INC., priority 2022, published 2025):
Numbering of substitutions follows the chain as printed.

How the values were obtained:
cyno 5T4 = target: T1, cyno 5T4 (Macaca fascicularis, UniProt Q4R8Y9); assay: Octet bivalent binding assay, cyno 5T4; parameters: species or system cynomolgus monkey; key: +: An increase in signal during the association step above the negative control was considered as binding to the antigen; settings: 200 nM biotinylated antigen immobilized, antibody at 500 nM
T1 construct: made in house
T1 sequence (Q4R8Y9 35-355 limits assumed): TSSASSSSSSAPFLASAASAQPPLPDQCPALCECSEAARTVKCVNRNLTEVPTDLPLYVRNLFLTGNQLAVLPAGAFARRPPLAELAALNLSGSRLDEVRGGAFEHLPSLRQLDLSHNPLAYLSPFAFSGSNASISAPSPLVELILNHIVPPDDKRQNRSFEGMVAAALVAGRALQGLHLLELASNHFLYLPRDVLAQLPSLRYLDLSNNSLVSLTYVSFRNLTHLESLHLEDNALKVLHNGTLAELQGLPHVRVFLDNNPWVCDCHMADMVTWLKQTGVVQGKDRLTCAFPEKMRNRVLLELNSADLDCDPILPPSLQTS
Source text: (§1) Bivalent binding assays were employed to provide data on whether antibodies with VH/VL obtained by the phage display in Example 1 bound immobilized 5T4 from all three clinically relevant species: human, cynomolgus monkey (cyno), and mouse. For the bivalent binding and cross-reactivity assays the 5T4 human, cyno, and mouse antigens were synthesized using sequences from the protein database and expressed as biotinylated proteins using a his-avi tag and in vivo biotinylation with co-expressed BirA enzyme.
(§2) A standard Octet-based assay was used to determine qualitatively if each antibody bound to each antigen. For these assays, 200 nM biotinylated antigens were immobilized on streptavidin biosensors in 1× kinetic buffer (ForteBio). The loaded sensors were then dipped in wells containing an antibody of interest at 500 nM and the association binding signal was monitored. An increase in signal during the association step above the negative control was considered as binding to the antigen.

human 5T4 = target: T2, human 5T4 (Homo sapiens, UniProt Q13641); assay: Octet bivalent binding assay, human 5T4; parameters: The extracellular domain of human 5T4 was purchased from Acro Biosystems (biotinylated human 5T4 His-AVITAG™ Acro Cat No. TPG-H83Eb) or produced; made in house; key: +: An increase in signal during the association step above the negative control was considered as binding to the antigen; settings: 200 nM biotinylated antigen immobilized, antibody at 500 nM
T2 sequence (Q13641 32-355 limits assumed): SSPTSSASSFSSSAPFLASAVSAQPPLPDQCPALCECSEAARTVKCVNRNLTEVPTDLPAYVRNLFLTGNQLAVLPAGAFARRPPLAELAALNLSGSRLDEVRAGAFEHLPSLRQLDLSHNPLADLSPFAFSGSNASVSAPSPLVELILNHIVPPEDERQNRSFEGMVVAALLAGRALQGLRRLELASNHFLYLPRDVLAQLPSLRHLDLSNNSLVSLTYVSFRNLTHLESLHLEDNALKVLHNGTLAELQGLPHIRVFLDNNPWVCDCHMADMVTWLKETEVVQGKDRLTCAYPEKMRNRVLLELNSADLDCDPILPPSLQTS
Source text: as §1, §2

mouse 5T4 = target: T3, mouse 5T4 (Mus musculus, UniProt Q9Z0L0); assay: Octet bivalent binding assay, mouse 5T4; parameters: key: +: An increase in signal during the association step above the negative control was considered as binding to the antigen; settings: 200 nM biotinylated antigen immobilized, antibody at 500 nM
T3 construct: made in house
T3 sequence (Q9Z0L0 32-361 limits assumed): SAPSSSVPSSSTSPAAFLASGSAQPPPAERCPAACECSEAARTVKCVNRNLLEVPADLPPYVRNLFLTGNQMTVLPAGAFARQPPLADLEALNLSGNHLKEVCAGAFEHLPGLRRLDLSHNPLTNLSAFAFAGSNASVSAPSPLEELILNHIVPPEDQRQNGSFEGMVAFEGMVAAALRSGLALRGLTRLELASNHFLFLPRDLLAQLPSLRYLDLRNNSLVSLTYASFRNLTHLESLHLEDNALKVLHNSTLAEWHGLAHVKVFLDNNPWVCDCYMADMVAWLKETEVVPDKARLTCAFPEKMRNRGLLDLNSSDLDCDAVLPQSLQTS
Source text: as §1, §2

[1] = target: T4, biotinylated cynomolgus 5T4 with His-Avi tag (produced in-house) (cynomolgus monkey, UniProt Q4R8Y9 35-355, biotin on the Avi tag); assay: Octet, biotinylated antigen on streptavidin biosensors, antibody at 500 nM (bivalent)
T4 construct: also called cyno 5T4; Cyno 5T4 Octet (bivalent); not shown: C-terminal 6-His-Avi tag
T4 sequence: T1 sequence (Q4R8Y9 35-355 limits assumed)

[2] = target: T5, biotinylated mouse 5T4 with His-Avi tag (produced in-house) (mouse, UniProt Q9Z0L0 32-361, biotin on the Avi tag); assay: as above
T5 construct: also called Mouse 5T4 Octet (bivalent); not shown: C-terminal 6-His-Avi tag
T5 sequence: T3 sequence (Q9Z0L0 32-361 limits assumed)

[3] = target: T6, mouse 5T4 on transfected HEK293 and CHO cells (mouse, UniProt Q9Z0L0 32-426); assay: cell binding on transfected HEK293 and CHO cells
T6 sequence: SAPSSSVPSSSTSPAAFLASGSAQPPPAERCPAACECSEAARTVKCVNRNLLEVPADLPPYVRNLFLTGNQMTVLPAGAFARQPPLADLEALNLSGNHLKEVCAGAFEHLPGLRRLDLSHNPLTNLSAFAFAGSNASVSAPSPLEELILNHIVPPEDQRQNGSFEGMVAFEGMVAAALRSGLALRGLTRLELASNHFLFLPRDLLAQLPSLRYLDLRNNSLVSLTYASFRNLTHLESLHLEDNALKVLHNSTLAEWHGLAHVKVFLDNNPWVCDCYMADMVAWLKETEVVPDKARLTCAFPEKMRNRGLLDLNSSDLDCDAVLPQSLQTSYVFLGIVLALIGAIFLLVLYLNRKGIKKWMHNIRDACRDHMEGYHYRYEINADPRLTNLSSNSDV

[4] = target: T4, biotinylated cynomolgus 5T4 with …; assay: summary of Examples 2-5; form of the antigen not given

B1: mAbA15: 5T4 antibody comprising VH of SEQ ID NO:44 and VL of SEQ ID NO:45 (antibody, V domains shown)
VH: EVQLVESGGGLVQPGGSLRLSCAASGFTFSSYYIHWVRQAPGKGLEWVAYITSTGSYTEYADSVKGRFTISADTSKNTAYLQMNSLRAEDTAVYYCARYDRSTRYSGLDYWGQGTLVTVSS
VL: DIQMTQSPSSLSASVGDRVTITCRASQSVSSAVAWYQQKPGKAPKLLIYSASSLYSGVPSRFSGSRSGTDFTLTISSLQPEDFATYYCQQAYATPVTFGQGTKVEIK
modifications: Antibody mAbA15 VH Sequence; Antibody mAbA15 VL Sequence
Q: Which “Cyno 5T4 Octet (bivalent)” value (cyno 5T4) does the source give for B1 here?
A: +

Q: And the “Human 5T4 Octet (bivalent)” value (human 5T4)?
A: +

Q: What about the “Mouse 5T4 Octet (bivalent)” value (mouse 5T4) of the same molecule?
A: +

B2: mAbA17 (antibody, V domains shown)
VH: EVQLVESGGGLVQPGGSLRLSCAASGFTFSRYWIHWVRQAPGKGLEWVAAIFPYSGSTLYADSVKGRFTISADTSKNTAYLQMNSLRAEDTAVYYCARSPSRSILPSGLDYWGQGTLVTVSS
VL: DIQMTQSPSSLSASVGDRVTITCRASQSVSSAVAWYQQKPGKAPKLLIYSASSLYSGVPSRFSGSRSGTDFTLTISSLQPEDFATYYCQQGDGSPYTFGQGTKVEIKR
notes: also called Antibody mAbA17
Q: Does B2 bind [1]?
A: binds

Q: Does B2 bind [2]?
A: binds

B3: mAbA4 (antibody, V domains shown)
VH: EVQLVESGGGLVQPGGSLRLSCAASGFTFSRYYIHWVRQAPGKGLEWVAFISPGGSYTYYADSVKGRFTISADTSKNTAYLQMNSLRAEDTAVYYCAREYYSMGVLDYWGQGTLVTVSS
VL: B2 VL with G91A, D92Y, G93E
notes: also called Antibody mAbA4
Q: What does the source list for B3?
A: binding result [3]: no binding; binding result [4]: binds

B4: mAbA17: 5T4 antibody comprising VH of SEQ ID NO:62 and VL of SEQ ID NO:63 (antibody, V domains shown)
VH: B2 VH
VL: B1 VL with A91G, Y92D, A93G, T94S, V96Y
modifications: Antibody mAbA17 VH Sequence; Antibody mAbA17 VL Sequence
Q: Which results are given for B4?
A: Cyno 5T4 Octet (bivalent) (cyno 5T4): +; Human 5T4 Octet (bivalent) (human 5T4): +; Mouse 5T4 Octet (bivalent) (mouse 5T4): +

B5: mAbA15 (antibody, V domains shown)
VH: B1 VH
VL: B2 VL with G91A, D92Y, G93A, S94T, Y96V
notes: also called Antibody mAbA15
Q: Does B5 bind [1]?
A: binds

Q: Does B5 bind [2]?
A: binds
